Several values for one entry are separate records, joined by “and”; a condition that tells them apart may be missing. Identical values can stand only once. Like-named read-outs stand apart in the source and are kept apart here.
Assays:
Experiment in all cases: SPR
[1] = biological target: T1, LRP1 cluster II (CR.3–10), recombinant, secreted from Sf9 cells (human, UniProt Q07954 852-1182)
T1 sequence: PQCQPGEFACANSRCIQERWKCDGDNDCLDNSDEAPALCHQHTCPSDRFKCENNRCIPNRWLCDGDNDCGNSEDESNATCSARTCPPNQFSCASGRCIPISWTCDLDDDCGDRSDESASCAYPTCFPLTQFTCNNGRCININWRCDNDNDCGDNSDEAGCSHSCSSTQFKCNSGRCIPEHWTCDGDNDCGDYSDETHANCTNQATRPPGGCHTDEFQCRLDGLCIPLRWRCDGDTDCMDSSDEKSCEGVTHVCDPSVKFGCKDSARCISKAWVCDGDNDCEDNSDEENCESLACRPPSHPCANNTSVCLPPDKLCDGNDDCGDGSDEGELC

[2] = biological target: T1, LRP1 cluster II (CR.3–10), recombinant, …; remark: listed apart in the source
[3] = biological target: T1, LRP1 cluster II (CR.3–10), recombinant, …; remark: listed apart in the source
[4] = biological target: LRP1 cluster IV (CR.21–31), recombinant, secreted from Sf9 cells (human, UniProt Q07954 3332-3778)
LRP1 cluster IV (CR.21–31), recombinant, secreted from Sf9 cells, sequence (Q07954 3332-3778): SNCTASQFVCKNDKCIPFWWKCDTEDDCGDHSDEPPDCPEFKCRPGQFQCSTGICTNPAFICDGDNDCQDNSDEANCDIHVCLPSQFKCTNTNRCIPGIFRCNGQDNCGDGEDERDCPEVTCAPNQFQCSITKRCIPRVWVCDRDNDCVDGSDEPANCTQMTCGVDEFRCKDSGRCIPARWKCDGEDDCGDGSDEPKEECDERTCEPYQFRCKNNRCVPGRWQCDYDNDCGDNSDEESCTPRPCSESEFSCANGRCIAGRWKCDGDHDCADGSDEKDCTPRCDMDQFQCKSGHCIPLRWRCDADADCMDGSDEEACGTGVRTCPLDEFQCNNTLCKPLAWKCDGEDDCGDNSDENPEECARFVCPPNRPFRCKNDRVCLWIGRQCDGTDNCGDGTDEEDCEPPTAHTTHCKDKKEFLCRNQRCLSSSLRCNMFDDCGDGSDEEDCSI

B1: RAP (commercial; R&D, 4296-LR) (natural protein, human)
chain: YSREKNQPKPSPKRESGEEFRMEKLNQLWEKAQRLHLPPVRLAELHADLKIQERDELAWKKLKLDGLDEDGEKEARLIRNLNVILAKYGLDGKKDARQVTSNSLSGTQEDGLDDPRLEKLWHKAKTSGKFSGEELDKLWREFLHHKEKVHEYNVLLETLSRTEEIHENVISPSDLSDIKGSVLHSRHTELKEKLRSINQGLDRLRRVSHQGYSTEAEFEEPRVIDLWDLAQSANLTDKELEAFREELKHFEAKIEKHNHYQKQLEIAHEKLRHAESVGDGERVSRSREKHALLEGRTKELGYTVKKHLQDLSGRISRARHNEL
[1]
  Kd: 2.66 nM
[2]
  Kd: 1.67 nM and 1.2 nM
[3]
  Kd: 1.97 nM and 2.4 nM
[4]
  Kd: 1.4 nM

Source: article PMC8239462 (The Journal of Biological Chemistry, 2021)
